Where no end group is shown, it is not given here. [ ]: non-standard residue; d: D form. The star is where a group is joined. C16 diacid = O=C(O)CCCCCCCCCCCCCCC(=O)*; Aib = CC(C)(N)C(=O)O
B1: AT640 (peptide)
peptide: [Aib]ETFISDYSIAMDKIK(C16 diacid)QQDFVNWLLAQKPSSGAPPPS-OH
modifications: N-terminus assumed
SMILES: CC[C@H](C)[C@H](NC(=O)[C@H](CO)NC(=O)[C@H](Cc1ccc(O)cc1)NC(=O)[C@H](CC(=O)O)NC(=O)[C@H](CO)NC(=O)[C@@H](NC(=O)[C@H](Cc1ccccc1)NC(=O)[C@@H](NC(=O)[C@H](CCC(=O)O)NC(=O)C(C)(C)N)[C@@H](C)O)[C@@H](C)CC)C(=O)N[C@@H](C)C(=O)N[C@@H](CCSC)C(=O)N[C@@H](CC(=O)O)C(=O)N[C@@H](CCCCN)C(=O)N[C@H](C(=O)N[C@@H](CCCCNC(=O)CCCCCCCCCCCCCCC(=O)O)C(=O)N[C@@H](CCC(N)=O)C(=O)N[C@@H](CCC(N)=O)C(=O)N[C@@H](CC(=O)O)C(=O)N[C@@H](Cc1ccccc1)C(=O)N[C@H](C(=O)N[C@@H](CC(N)=O)C(=O)N[C@@H](Cc1c[nH]c2ccccc12)C(=O)N[C@@H](CC(C)C)C(=O)N[C@@H](CC(C)C)C(=O)N[C@@H](C)C(=O)N[C@@H](CCC(N)=O)C(=O)N[C@@H](CCCCN)C(=O)N1CCC[C@H]1C(=O)N[C@@H](CO)C(=O)N[C@@H](CO)C(=O)NCC(=O)N[C@@H](C)C(=O)N1CCC[C@H]1C(=O)N1CCC[C@H]1C(=O)N1CCC[C@H]1C(=O)N[C@@H](CO)C(=O)O)C(C)C)[C@@H](C)CC
B2: AT642 (peptide)
peptide: PETFISDYSIAMDKIK(C16 diacid)QQDFVNWLLAQKPSSGAPPPS-OH
modifications: N-terminus assumed
SMILES: CC[C@H](C)[C@H](NC(=O)[C@H](CO)NC(=O)[C@H](Cc1ccc(O)cc1)NC(=O)[C@H](CC(=O)O)NC(=O)[C@H](CO)NC(=O)[C@@H](NC(=O)[C@H](Cc1ccccc1)NC(=O)[C@@H](NC(=O)[C@H](CCC(=O)O)NC(=O)[C@@H]1CCCN1)[C@@H](C)O)[C@@H](C)CC)C(=O)N[C@@H](C)C(=O)N[C@@H](CCSC)C(=O)N[C@@H](CC(=O)O)C(=O)N[C@@H](CCCCN)C(=O)N[C@H](C(=O)N[C@@H](CCCCNC(=O)CCCCCCCCCCCCCCC(=O)O)C(=O)N[C@@H](CCC(N)=O)C(=O)N[C@@H](CCC(N)=O)C(=O)N[C@@H](CC(=O)O)C(=O)N[C@@H](Cc1ccccc1)C(=O)N[C@H](C(=O)N[C@@H](CC(N)=O)C(=O)N[C@@H](Cc1c[nH]c2ccccc12)C(=O)N[C@@H](CC(C)C)C(=O)N[C@@H](CC(C)C)C(=O)N[C@@H](C)C(=O)N[C@@H](CCC(N)=O)C(=O)N[C@@H](CCCCN)C(=O)N1CCC[C@H]1C(=O)N[C@@H](CO)C(=O)N[C@@H](CO)C(=O)NCC(=O)N[C@@H](C)C(=O)N1CCC[C@H]1C(=O)N1CCC[C@H]1C(=O)N1CCC[C@H]1C(=O)N[C@@H](CO)C(=O)O)C(C)C)[C@@H](C)CC
B3: AT641 (peptide)
peptide: GETFISDYSIAMDKIK(C16 diacid)QQDFVNWLLAQKPSSGAPPPS-OH
modifications: N-terminus assumed
SMILES: CC[C@H](C)[C@H](NC(=O)[C@H](CO)NC(=O)[C@H](Cc1ccc(O)cc1)NC(=O)[C@H](CC(=O)O)NC(=O)[C@H](CO)NC(=O)[C@@H](NC(=O)[C@H](Cc1ccccc1)NC(=O)[C@@H](NC(=O)[C@H](CCC(=O)O)NC(=O)CN)[C@@H](C)O)[C@@H](C)CC)C(=O)N[C@@H](C)C(=O)N[C@@H](CCSC)C(=O)N[C@@H](CC(=O)O)C(=O)N[C@@H](CCCCN)C(=O)N[C@H](C(=O)N[C@@H](CCCCNC(=O)CCCCCCCCCCCCCCC(=O)O)C(=O)N[C@@H](CCC(N)=O)C(=O)N[C@@H](CCC(N)=O)C(=O)N[C@@H](CC(=O)O)C(=O)N[C@@H](Cc1ccccc1)C(=O)N[C@H](C(=O)N[C@@H](CC(N)=O)C(=O)N[C@@H](Cc1c[nH]c2ccccc12)C(=O)N[C@@H](CC(C)C)C(=O)N[C@@H](CC(C)C)C(=O)N[C@@H](C)C(=O)N[C@@H](CCC(N)=O)C(=O)N[C@@H](CCCCN)C(=O)N1CCC[C@H]1C(=O)N[C@@H](CO)C(=O)N[C@@H](CO)C(=O)NCC(=O)N[C@@H](C)C(=O)N1CCC[C@H]1C(=O)N1CCC[C@H]1C(=O)N1CCC[C@H]1C(=O)N[C@@H](CO)C(=O)O)C(C)C)[C@@H](C)CC
B4: AT638 (peptide)
peptide: PGTFISDYSIAMDKIK(C16 diacid)QQDFVNWLLAQKPSSGAPPPS-OH
modifications: N-terminus assumed
SMILES: CC[C@H](C)[C@H](NC(=O)[C@H](CO)NC(=O)[C@H](Cc1ccc(O)cc1)NC(=O)[C@H](CC(=O)O)NC(=O)[C@H](CO)NC(=O)[C@@H](NC(=O)[C@H](Cc1ccccc1)NC(=O)[C@@H](NC(=O)CNC(=O)[C@@H]1CCCN1)[C@@H](C)O)[C@@H](C)CC)C(=O)N[C@@H](C)C(=O)N[C@@H](CCSC)C(=O)N[C@@H](CC(=O)O)C(=O)N[C@@H](CCCCN)C(=O)N[C@H](C(=O)N[C@@H](CCCCNC(=O)CCCCCCCCCCCCCCC(=O)O)C(=O)N[C@@H](CCC(N)=O)C(=O)N[C@@H](CCC(N)=O)C(=O)N[C@@H](CC(=O)O)C(=O)N[C@@H](Cc1ccccc1)C(=O)N[C@H](C(=O)N[C@@H](CC(N)=O)C(=O)N[C@@H](Cc1c[nH]c2ccccc12)C(=O)N[C@@H](CC(C)C)C(=O)N[C@@H](CC(C)C)C(=O)N[C@@H](C)C(=O)N[C@@H](CCC(N)=O)C(=O)N[C@@H](CCCCN)C(=O)N1CCC[C@H]1C(=O)N[C@@H](CO)C(=O)N[C@@H](CO)C(=O)NCC(=O)N[C@@H](C)C(=O)N1CCC[C@H]1C(=O)N1CCC[C@H]1C(=O)N1CCC[C@H]1C(=O)N[C@@H](CO)C(=O)O)C(C)C)[C@@H](C)CC
B5: AT639 (peptide)
peptide: VETFISDYSIAMDKIK(C16 diacid)QQDFVNWLLAQKPSSGAPPPS-OH
modifications: N-terminus assumed
SMILES: CC[C@H](C)[C@H](NC(=O)[C@H](CO)NC(=O)[C@H](Cc1ccc(O)cc1)NC(=O)[C@H](CC(=O)O)NC(=O)[C@H](CO)NC(=O)[C@@H](NC(=O)[C@H](Cc1ccccc1)NC(=O)[C@@H](NC(=O)[C@H](CCC(=O)O)NC(=O)[C@@H](N)C(C)C)[C@@H](C)O)[C@@H](C)CC)C(=O)N[C@@H](C)C(=O)N[C@@H](CCSC)C(=O)N[C@@H](CC(=O)O)C(=O)N[C@@H](CCCCN)C(=O)N[C@H](C(=O)N[C@@H](CCCCNC(=O)CCCCCCCCCCCCCCC(=O)O)C(=O)N[C@@H](CCC(N)=O)C(=O)N[C@@H](CCC(N)=O)C(=O)N[C@@H](CC(=O)O)C(=O)N[C@@H](Cc1ccccc1)C(=O)N[C@H](C(=O)N[C@@H](CC(N)=O)C(=O)N[C@@H](Cc1c[nH]c2ccccc12)C(=O)N[C@@H](CC(C)C)C(=O)N[C@@H](CC(C)C)C(=O)N[C@@H](C)C(=O)N[C@@H](CCC(N)=O)C(=O)N[C@@H](CCCCN)C(=O)N1CCC[C@H]1C(=O)N[C@@H](CO)C(=O)N[C@@H](CO)C(=O)NCC(=O)N[C@@H](C)C(=O)N1CCC[C@H]1C(=O)N1CCC[C@H]1C(=O)N1CCC[C@H]1C(=O)N[C@@H](CO)C(=O)O)C(C)C)[C@@H](C)CC

target: T1, human GIP receptor (human, UniProt P48546 22-466); assay: cell-based or functional assay
T1 sequence (looked up): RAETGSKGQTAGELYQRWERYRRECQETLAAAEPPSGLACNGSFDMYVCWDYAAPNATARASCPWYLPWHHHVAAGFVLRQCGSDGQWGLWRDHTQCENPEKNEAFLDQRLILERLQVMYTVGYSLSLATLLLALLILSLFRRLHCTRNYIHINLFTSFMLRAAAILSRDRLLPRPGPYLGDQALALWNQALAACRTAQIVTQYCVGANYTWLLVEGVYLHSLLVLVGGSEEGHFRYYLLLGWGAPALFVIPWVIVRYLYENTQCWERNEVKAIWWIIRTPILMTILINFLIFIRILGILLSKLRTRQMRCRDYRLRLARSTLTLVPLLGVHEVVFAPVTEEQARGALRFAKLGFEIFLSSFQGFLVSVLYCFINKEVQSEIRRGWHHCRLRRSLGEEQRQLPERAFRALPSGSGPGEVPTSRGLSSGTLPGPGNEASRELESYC

B1 was tested. Which “cAMP agonism % Emax” value did it give?
Its value is 0%.

And the “cAMP antagonism” value?
Its value is 7.08 nM.

And the “cAMP antagonism % inhib” value?
The value was 90%.

And the “cAMP antagonism pIC50” value?
The value was 8.2.

With B2 as the binder, how does the “cAMP agonism % Emax” value read?
The value was 0%.

And the “cAMP antagonism” value?
The value was 35.5 nM.

What about the “cAMP antagonism % inhib” value of the same binder?
The value was 92%.

What about the “cAMP antagonism pIC50” value of the same binder?
Its value is 7.5.

With B3 as the binder, how does the “cAMP agonism % Emax” value read?
The value was 0%.

What about the “cAMP antagonism” value of the same binder?
The value was 7.94 nM.

And the “cAMP antagonism % inhib” value?
Its value is 91%.

And the “cAMP antagonism pIC50” value?
The value was 8.1.

Which “cAMP agonism % Emax” value does the source give for B4 here?
Its value is 0%.

What about the “cAMP antagonism” value of the same binder?
The value was 14.7 nM.

What about the “cAMP antagonism % inhib” value of the same binder?
The value was 85%.

And the “cAMP antagonism pIC50” value?
The value was 7.8.

B5 was tested. Which “cAMP agonism % Emax” value did it give?
Its value is 0%.

What about the “cAMP antagonism” value of the same binder?
Its value is 66.8 nM.

What about the “cAMP antagonism % inhib” value of the same binder?
Its value is 100%.

What about the “cAMP antagonism pIC50” value of the same binder?
Its value is 7.2.

Reference: patent publication US20220298218A1 (ANTAG THERAPEUTICS, published 2022)
